This is an account of results in patent US20250018014A1, “METHOD FOR TREATING AND/OR PREVENTING REGNASE-1-RELATED DISEASE” (OSAKA UNIVERSITY, priority 2018, published 2025).

Substitutions are numbered along the chain they refer to. Entries after “also recorded” stand apart in the source; their conditions may differ.

The test system of assay [1] is appearance of non-phosphorylated Regnase-1 in MEF. In words: Immunoblot analysis of Regnase-1 in MEFs during the recovery phase after IL-17A stimulation. The format is cell-based, mouse. The note with it: after IL-17A (50 ng/ml) one hour; cycloheximide and okadaic acid (0.5 μM). How it is done:
Total mRNA was prepared from cells treated with doxycycline for 0 to 4 hours, and then subjected to Northern blotting using [^32P] labelled probes. […] Cells were treated with IL-17A (50 ng/ml) for one hour, and subsequently incubated in a medium with no additives (control), a medium containing cycloheximide (100 μM), or a medium containing both cycloheximide and okadaic acid (0.5 μM) for 0 to 240 minutes. […] The qPCR data (A, B, and E) were collected from four independent experiments. The error bars represent mean±SEM. ***P<0.005.
Next, the present inventors investigated the mechanism of target mRNA suppression in Regnase-1AA/AA cells. As described above, suppression of target mRNA is more enhanced at later stages of IL-17A stimulation. The present inventors used immunoblot analysis of phosphorylated and non-phosphorylated Regnase-1 during the recovery phase after the completion of IL-17A stimulation. […] The increase in the amount of non-phosphorylated Regnase-1 protein was enhanced much more strongly in Regnase-1AA/AA MEF than in wild type cells.
On the technique in general: Immunoblotting shows a protein as a band on a membrane.

Assay [2] relates to IL-6 mRNA stability in Regnase-1AA/AA MEF. In words: qPCR analysis of IL-6 mRNA levels in Regnase-1AA/AA MEFs after TNF-α and IL-17A, with ActD. The format is cell-based, mouse. The note with it: ActD and okadaic acid (0.5 μM). On the technique in general: In qPCR the cycle at which signal appears reflects the starting amount.
The subject of assay [3] is Regnase-1 phosphorylation upon IL-17A stimulation in MEF. In words: Immunoblot analysis of Regnase-1 in wild-type MEFs stimulated with IL-17 in the presence of BX795. It is filed as cell-based, mouse. Particulars: BX795 (50 μM). The text has this: The two arrows indicate the phosphorylated form (upper) and unphosphorylated form (lower) of Regnase-1.
To identify the kinase responsible for Regnase-1 phosphorylation in the IL-17A signaling pathway, the inventors investigated a series of MEFs lacking TBK1, IKKi, TBK1/IKKi, Act1, IKKa/IKKβ, or IRAK1/IRAK2. […] To investigate whether TBK1 and IKKi directly phosphorylate Regnase-1, the present inventors prepared recombinant Regnase-1 purified from a MEF cell line stably expressing FLAG-tagged Regnase-1. Phosphorylation of recombinant Regnase-1 by recombinant TBK1 and/or IKKi under in vitro conditions was detected as an electrophoretic mobility shift pattern by immunoblotting and ^32P autoradiography (FIG. 12-2D). […] The phosphorylation pattern of Regnase-1 by IRAK appeared to be similar to that by TBK1 and IKKi, but Regnase-1 phosphorylation occurred in IRAK1/IRAK2 double-deficient MEF (FIG. 12-2E). In contrast, Regnase-1 phosphorylation in response to IL-1β occurred in TBK1/IKKi double-deficient MEF (FIG. 12-3J).

For assay [4], the target named is T1, Regnase-1 phosphorylation by IKKβ (Homo sapiens, UniProt Q5D1E8).
T1 construct: GST (N, cleaved yes); made in house; host or cells: Expi293 cells
T1 sequence (Q5D1E8 1-599): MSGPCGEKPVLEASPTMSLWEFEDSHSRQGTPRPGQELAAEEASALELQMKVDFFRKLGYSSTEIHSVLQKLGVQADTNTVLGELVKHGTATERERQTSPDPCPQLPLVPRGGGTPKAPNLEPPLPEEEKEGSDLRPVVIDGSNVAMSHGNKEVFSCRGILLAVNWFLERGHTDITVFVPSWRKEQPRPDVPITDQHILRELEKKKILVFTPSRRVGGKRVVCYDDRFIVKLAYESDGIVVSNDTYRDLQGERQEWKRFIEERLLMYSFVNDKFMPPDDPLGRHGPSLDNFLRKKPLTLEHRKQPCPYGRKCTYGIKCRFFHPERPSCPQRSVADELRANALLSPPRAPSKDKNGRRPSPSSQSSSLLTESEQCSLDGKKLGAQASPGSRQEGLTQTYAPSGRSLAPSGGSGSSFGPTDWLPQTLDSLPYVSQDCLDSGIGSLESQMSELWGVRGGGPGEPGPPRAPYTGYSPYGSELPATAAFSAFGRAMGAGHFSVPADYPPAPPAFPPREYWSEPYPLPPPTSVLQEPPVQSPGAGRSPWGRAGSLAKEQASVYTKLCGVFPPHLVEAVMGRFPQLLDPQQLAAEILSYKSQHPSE
In words: Inhibitory activity of anti-Regnase-1 antibodies against Regnase-1 phosphorylation by IKKβ (Phos-tag gel, western blotting). Particulars: antibody at final concentrations of 16.7 μg/mL and 5.0 μg/mL; relative to Control group. It is filed as biochemical. On the procedure: To a solution (ATP buffer) containing Kinase Assay Buffer III (manufactured by SignalChem) supplemented with 2 mM DTT, 100 μM sodium vanadate, 2 mM manganese chloride, and 15 μM ATP, dephosphorylated Regnase-1 was mixed at 150 nM. Four microliters of this solution and 4 μL of HEPES Buffered Saline containing 50 μg/mL or 15 μg/mL of anti-Regnase-1 antibody were mixed, and this was allowed to react for one hour. This reaction solution was mixed with 4 μL of ATP buffer containing 150 nM of each kinase (IKKβ or TBK1), and further reacted for one hour. After the reaction, 4 μL of 4× Laemmli Sample buffer (manufactured by Bio-Rad) was added and this mixture was incubated at 95° C. for five minutes for protein denaturation treatment. This sample was ice-cooled for three minutes, and 10 μL of it was added to SuperSep Phos-tag 7.5% 17 wells (manufactured by Wako) placed in EasySeparator (manufactured by Wako). […] Chemiluminescence was detected using ImageQuant LAS4000 mini (manufactured by GE Healthcare).
A band for phosphorylated Regnase-1 was detected due to treatment with each kinase (FIG. 33A). Band densities were measured with Image Quant-TL (manufactured by GE Healthcare). The relative value for the band density of the sample to which each compound was added was calculated, considering the band density of the kinase-added sample of the Control group, to which no compound was added, as 1. […]

Assay [5] deals with T2, FL_Reg1 (human full-length Regnase-1) (Homo sapiens, UniProt Q5D1E8).
T2 construct: made in house; host or cells: Expi293 cells
T2 sequence (Q5D1E8 1-599): T1 sequence (Q5D1E8 1-599)
In words: Binding of anti-non-phosphorylated Regnase-1 peptide antibodies to bead-bound full length human Regnase-1 (iQue screener). Particulars: streptavidin-immobilized beads; histograms FIG. 32. How it is done: (§1) • Biotin-Conjugated FL_Reg1, Biotin-Conjugated Peptide • […], biotin-conjugated peptide • AFPPREYWSEPYPLPPPTC-NH2, and biotinylated BSA (Sigma, A8549) were each bound to streptavidin-immobilized beads.
(§2) These beads were mixed with each anti-Regnase-1 antibody, and they were allowed to react. Thereafter, Anti-Rabbit IgG1 Alexa488 (molecular probes, A21244) was mixed and reacted, and analysis was performed with iQue screener PLUS (intellicyt). Data was analyzed with FlowJo ver10.

In assay [6] the target is T3, Peptide 1 ([…]), partial peptide of human Regnase-1 (Homo sapiens, UniProt Q5D1E8).
T3 construct: […], biotin-conjugated peptide; made in house; host or cells: chemical synthesis
In words: Binding of anti-non-phosphorylated Regnase-1 peptide antibodies to bead-bound Peptide 1 (iQue screener). Particulars: streptavidin-immobilized beads; histograms FIG. 32. On the procedure: as §1, §2

With `C=C1[C@@H](O)[C@@H]2O[C@]3(CC[C@H](/C=C/[C@@H](C)[C@@H]4CC(C)=C[C@@]5(O[C@H](C[C@@](C)(O)C(=O)O)CC[C@H]5O)O4)O3)CC[C@H]2O[C@@H]1[C@@H](O)C[C@H](C)[C@H]1O[C@@]2(CCCCO2)CC[C@H]1C` [okadaic acid], the “appearance of non-phosphorylated Regnase-1 during the recovery phase” value in assay [1] is given as “non-phosphorylated Regnase-1 did not appear”. Also, in assay [2], the “IL-6 mRNA stability / half-life” value was “IL-6 mRNA stability was also enhanced; also recorded: dramatic increase in the half-life of IL-6 mRNA”.

For `O=C(NCCCNc1nc(Nc2cccc(NC(=O)N3CCCC3)c2)ncc1I)c1cccs1` [BX795], the “Regnase-1 phosphorylation upon IL-17A stimulation” value in assay [3] is on record as “inhibited Regnase-1 phosphorylation”.

B1: REA0023: anti-Regnase-1 antibody; heavy chain SEQ ID NO: 20, light chain SEQ ID NO: 21 (antibody)
heavy: QSLEESGGDLVKPGASLTLTCTDAGFSFSGVYWMHWVRQAPGKGLEWIACINAGSSGSTYYASWAKGRFTISKPSSTTVTLQMTSLTVADTATYFCARSFTLWGPGTLVTVSSGQPKAPSVFPLAPCCGDTPSSTVTLGCLVKGYLPEPVTVTWNSGTLTNGVRTFPSVRQSSGLYSLSSVVSVTSSSQPVTCNVAHPATNTKVDKTVAPSTCSKPTCPPPELLGGPSVFIFPPKPKDTLMISRTPEVTCVVVDVSQDDPEVQFTWYINNEQVRTARPPLREQQFNSTIRVVSTLPITHQDWLRGKEFKCKVHNKALPAPIEKTISKARGQPLEPKVYTMGPPREELSSRSVSLTCMINGFYPSDISVEWEKNGKAEDNYKTTPAVLDSDGSYFLYNKLSVPTSEWQRGDVFTCSVMHEALHNHYTQKSISRSPGK
light: AVVTQTPSSVSAAVGGTVTIKCQSSQSVGNNNYLAWFQQKPGQPPKLLIYSASTLASGVPSRFSGSGSGTQFTLTISGVQCDDAATYYCLGGYDGDGEAFYVFGGGTEVVVKGDPVAPTVLIFPPAADQVATGTVTIVCVANKYFPDVTVTWEVDGTTQTTGIENSKTPQNSADCTYNLSSTLTLTSTQYNSHKEYTCKVTQGTTSVVQSFNRGDC
Regarding B1, the “density of the phosphorylated Regnase-1 band in IKKβ treatment” value in assay [4] is “decreased”. Further, the “binding to FL_Reg1 compared with biotinylated BSA” value in assay [5] is recorded as “bound more strongly”. The “binding to Peptide 1 compared with biotinylated BSA” value in assay [6] was “bound more strongly”.

B2: REA0027: anti-Regnase-1 antibody; heavy chain SEQ ID NO: 22, light chain SEQ ID NO: 23 (antibody)
heavy: B1 heavy with D23A, A24S, S27G, G30S, V31S, G57T, S58K, R98W, T101N
light: B1 light with Y33W
For B2, the “density of the phosphorylated Regnase-1 band in IKKβ treatment” value in assay [4] is recorded as “decreased”. The “binding to FL_Reg1 compared with biotinylated BSA” value in assay [5] was “bound more strongly”. Further, the “binding to Peptide 1 compared with biotinylated BSA” value in assay [6] is reported as “bound more strongly”.
